Measured values published in patent US20250134019A1, “TRIKETONE DIOXYGENASE VARIANTS FOR HERBICIDE TOLERANCE” (Monsanto Technology LLC, priority 2022, published 2025).

Key:
[1] = Enzyme activity (Kcat/Km) for hydroxylation of mesotrione at room temperature; assay type: biochemical; details: Round 2 high-throughput screens
Description: The enzyme activity was expressed as Kcat/Km, M-1 sec-1. […] The enzyme activity was measured at room temperature for the hydroxylation of mesotrione, and was defined as Kcat/Km, M-1 sec-1 (specificity constant). Of these variants, four were tested in soybean plants. […] TDO activity was measured by the second hydroxylation of mesotrione. For routine activity measurements of TDO and determining the kinetic properties of the second hydroxylation, the continuous change in […], which is specific to the second hydroxylation and subsequent non-enzymatic water removal (i.e. the conversion of hydroxy-mesotrione to oxy-mesotrione), was monitored. […] The reaction proceeded until the maximum […] was obtained (usually 20-120 minutes depending upon the concentration of mesotrione) and the linear portion of the curve was determined by visual inspection. […] The reaction mixtures were analyzed by HPLC and mass spectrophotometry. By product conversation followed by peak integration on HPLC, a linear plot was obtained and the extinction co-efficient delta between the substrate (mesotrione) and the second product (oxy-mesotrione) was obtained according to the equation […]=(εp-εs)*bΔp where […] is the change of absorbance at 330 nm and b is the light path.

[2] = tested on: transgenic soybean plants; assay: Response of R0 soybean plants transformed with Round 2 TDO variants to mesotrione; assay type: in vivo; details: R0 transgenic soybean sprayed with mesotrione
Source text: The next set of experiments was focused on determining if the balance between improved enzyme stability could outweigh a reduction in activity observed at optimal temperatures in soybean plants. […] To test this hypothesis, the eight variants from Round 2 biochemical analysis described in the preceding paragraph were transformed into soybean through Agrobacterium-mediated transformation, along with three controls. One of the controls (TDO_9) was a variant from the high-throughput screens that had poor activity. Two other controls were the D08 variant and the Os.TDO. R0 transgenic soybean plants were sprayed with the mesotrione herbicide to screen for herbicide tolerance. […] These included the Os.TDO control, the D08 variant and one Round 2 variant. The plants were scored for percent injury as described in the previous examples.

B1: TDO_9: Os.TDO variant, SEQ ID NO:44, F199L-K279R relative to D08; control with poor activity (protein)
chain: MADESWRAPALVQELAAKGVEEPPSRYLLREQDRPDVKLVAAELPEPIPVVDLGRLDGAEEATKLRVALQNWGFFLLTNHGIEASLMDDVMNLSREFFNQPIERKQKFSNLIDGKHFQIEGYGTDRVVTQDQVLDWSDRLHLRVEPKEEQDLAFWPDHPESFRDVLHKYASGCKRIRDDIIQAMAKLLELDEDYFLDRLNEAPTFARFNYYPPCPRPDLVFGIRPHSDGGLLTILLVDKDVGGLQVQRDGKWSNVPATPHTLLINLGDTMEVMSNGIFRSPVHRVVTNAEKERISLAMLYSVNDEKDIEPAAGLLDENRPARYRKVSVEEFRAGIFGKFSRGERYIDSLRI
modifications: TDO variant sequence
activity in high-throughput screens [1]: poor activity
R0 % Injury [2]: 36%
